Test results taken from article PMC12434095, “LysR-type transcriptional regulator CARR represses the expression of bla CAR-2 and reduces P. diazotrophicus resistance to cefalothin, cefuroxime and cefotaxime” (Frontiers in Cellular and Infection Microbiology, 2025).

How the values were obtained:
Experiment in all cases: purified protein
Type in all cases: biochemical, Phytobacter diazotrophicus
[1] = tested on: CO/N=C(\C(=O)N[C@@H]1C(=O)N2C(C(=O)O)=C(COC(C)=O)CS[C@H]12)c1csc(N)n1; conditions: 50 mM HEPES pH 7.5, 25°C, 50 µM ZnSO4, 0.634 µM enzyme, kcat 0.61 in source
[2] = tested on: CC(=O)OCC1=C(C(=O)O)N2C(=O)[C@@H](NC(=O)Cc3cccs3)[C@H]2SC1; conditions: 50 mM HEPES pH 7.5, 25°C, 50 µM ZnSO4, 0.634 µM enzyme
[3] = tested on: CO/N=C(\C(=O)N[C@@H]1C(=O)N2C(C(=O)O)=C(COC(N)=O)CS[C@H]12)c1ccco1; conditions: 50 mM HEPES pH 7.5, 25°C, 50 µM ZnSO4, 1.27 µM enzyme

**Q.** Which Km [1] does the source give for CAR-2 (Phytobacter diazotrophicus) here?
**A.** 33.08 µM

**Q.** What about the Vmax [1] of the same substance?
**A.** 23.4 µM/min

**Q.** What about the kcat [1] of the same substance?
**A.** 0.62 s⁻¹

**Q.** What about the kcat/Km [1] of the same substance?
**A.** 18700 M⁻¹ s⁻¹

**Q.** And the Km [2]?
**A.** 63.78 µM

**Q.** What about the Vmax [2] of the same substance?
**A.** 31.8 µM/min

**Q.** What about the kcat [2] of the same substance?
**A.** 0.84 s⁻¹

**Q.** And the kcat/Km [2]?
**A.** 13200 M⁻¹ s⁻¹

**Q.** And the Km [3]?
**A.** 49.28 µM

**Q.** What about the Vmax [3] of the same substance?
**A.** 16.2 µM/min

**Q.** What about the kcat [3] of the same substance?
**A.** 0.21 s⁻¹

**Q.** What about the kcat/Km [3] of the same substance?
**A.** 4260 M⁻¹ s⁻¹
